Assay results as given in patent publication US20160340429A1 (KADMON, published 2016).

T1: human PDL2 (human, UniProt Q9BQ51 20-219, limits assumed)
T1 sequence (looked up): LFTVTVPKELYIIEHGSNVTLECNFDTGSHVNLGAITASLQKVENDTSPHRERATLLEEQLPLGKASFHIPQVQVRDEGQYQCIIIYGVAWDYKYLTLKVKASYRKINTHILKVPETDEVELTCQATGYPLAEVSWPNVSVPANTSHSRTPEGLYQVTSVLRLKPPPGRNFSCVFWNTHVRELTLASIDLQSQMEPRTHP


Columns and labels:
[1] = target: T2, soluble human PDL1 (human, UniProt Q9NZQ7 19-239, limits assumed); test: binding assay of FIG. 17
T2 construct: May be the same protein as the human PDL1-Fc; also called soluble PDL1

[2] = target: T3, soluble mouse PDL1 (mouse, UniProt Q9EP73 19-238, limits assumed); test: binding assay of FIG. 17
T3 construct: May be the same protein as the murine PDL1-Fc

[3] = target: T1, human PDL2; test: binding assay of FIG. 17
[4] = target: T4, human PD-L1 on cells (PDLI-293 / HEK-293 cells expressing PD-L1, MDA-MB-231 cells, activated CD4 cells, … (human, UniProt Q9NZQ7 19-290)); test: binding to MDA-MB-231 cells, FIG. 19
T4 construct: whole, on cells
T4 sequence (Q9NZQ7 19-290): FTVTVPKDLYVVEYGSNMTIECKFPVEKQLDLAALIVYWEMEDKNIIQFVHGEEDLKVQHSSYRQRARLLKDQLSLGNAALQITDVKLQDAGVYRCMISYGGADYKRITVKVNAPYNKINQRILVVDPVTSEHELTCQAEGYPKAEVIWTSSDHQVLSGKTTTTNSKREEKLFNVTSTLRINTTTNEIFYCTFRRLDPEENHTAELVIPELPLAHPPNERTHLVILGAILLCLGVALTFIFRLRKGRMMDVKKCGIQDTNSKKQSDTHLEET

T2 sequence (Q9NZQ7 19-239 limits assumed): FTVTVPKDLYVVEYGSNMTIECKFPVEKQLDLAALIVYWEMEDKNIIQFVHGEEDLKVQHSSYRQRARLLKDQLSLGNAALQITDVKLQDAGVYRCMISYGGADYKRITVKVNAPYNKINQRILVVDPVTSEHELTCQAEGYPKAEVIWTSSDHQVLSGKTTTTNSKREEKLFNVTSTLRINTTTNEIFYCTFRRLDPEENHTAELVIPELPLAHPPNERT
T3 sequence (Q9EP73 19-238 limits assumed): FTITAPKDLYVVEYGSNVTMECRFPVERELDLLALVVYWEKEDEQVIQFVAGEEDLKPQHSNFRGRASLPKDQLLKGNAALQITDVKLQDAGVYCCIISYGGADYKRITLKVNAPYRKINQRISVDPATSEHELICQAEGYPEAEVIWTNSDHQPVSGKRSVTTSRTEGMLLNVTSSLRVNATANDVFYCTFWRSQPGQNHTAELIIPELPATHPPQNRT

binding result [1] | binding result [2] | binding result [3] | binding result [4] | Binder
binds | binds | no binding | binds | tccD7_#114 (antibody, V domains shown, converted to IgG and to an IgG with two Leu-Ala substitutions) VH: EVQLLESGGGLVQPGGSLRLSCAASGFTFSSYLMVWVRQAPGKGLEWVSSIYPSGGITFYADSVKGRFTISRDNSKNTLYLQMNSLRAEDTAIYYCARIKLGTVTTVDYWGQGTLVTVSS VL: QSALTQPASVSGSPGQSITISCTGTSSDVGAYNYVSWYQQHPGKAPKLMIYDVSNRPSGVSNRFSGSKSGNTASLTISGLQAEDEADYYCSSYTSSSTRVFGTGTKVTVLG
binds | binds | no binding | binds | tccD7_#102 (antibody, V domains shown, converted to IgG and to an IgG with two Leu-Ala substitutions; also called tccD7_#2; cD7_#2) VH: EVQLLESGGGLVQPGGSLRLSCAASGFTFSAYRMFWVRQAPGKGLEWVSSIYPSGGITFYADSVKGRFTISRDNSKNTLYLQMNSLRAEDTAIYYCARIKLGTVTTVDYWGQGTLVTVSS VL: QSALTQPASVSGSPGQSITISCTGTSSDVGAYNYVSWYQQHPGKAPKLMIYDVSNRPSGVSNRFSGSKSGNTASLTISGLQAEDEADYYCSSYTSSSTRVFGTGTKVTVLG
